The text below walks through data of article doi:10.1101/2022.11.11.516098.

Data set [1] has as its target T1, MLEΔG (UniProt P24785 1-1158). In words: cryo-EM.
Data set [2] has as its target T1, MLEΔG. In words: fluorescence polarization. (In general: Polarisation of emitted light reports the rotation of a fluorescent probe.)
The target of data set [3] is MLEΔGin (UniProt P24785 1-1158, E195C;S633C). In words: fluorescence polarization.

B1: U10 RNA (ssRNA)
RNA: UUUUUUUUUU
As for B1, the binding result in data set [1] was “binds”.

B2: UUC RNA (fluorescein) (ssRNA)
RNA: CCUCUUUCUUUC
By IC50 is commonly meant the point on the concentration scale where inhibition reaches its midpoint. Regarding B2, the IC50 in data set [2] stood at 302 ± 43 nM; in data set [3], 280 ± 19 nM.

B3: SL7 (SL7mod-UUC) RNA (structured_RNA)
RNA: GUGUAAAAUGUUGCUAGCAAAUAUAUAUGCUAGUAACGUUUUACGCCCUCUUUCUUUCUU
For the molecule B3, the “apparent K (half saturation)” value in data set [2] was found to be 16 nM.
